# Results: patent US20120114652A1 (AbbVie / Abbott, published 2012)
# T1: mouse PAI-1 (mouse, UniProt P22777 24-401)
# T1 construct: bought (US Biological); also called murine PAI-1
# T1 sequence: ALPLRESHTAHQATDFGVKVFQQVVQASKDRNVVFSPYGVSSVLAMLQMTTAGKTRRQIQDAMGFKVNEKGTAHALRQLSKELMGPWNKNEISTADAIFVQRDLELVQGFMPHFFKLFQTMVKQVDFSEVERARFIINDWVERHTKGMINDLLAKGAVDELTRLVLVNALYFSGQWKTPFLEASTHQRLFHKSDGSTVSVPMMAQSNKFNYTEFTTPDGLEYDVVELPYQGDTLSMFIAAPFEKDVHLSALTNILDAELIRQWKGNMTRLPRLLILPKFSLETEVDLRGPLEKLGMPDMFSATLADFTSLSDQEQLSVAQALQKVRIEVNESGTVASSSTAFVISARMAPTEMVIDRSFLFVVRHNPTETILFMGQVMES
# T2: rat PAI-1 (rat, UniProt P20961 24-402)
# T2 construct: bought (US Biological)
# T2 sequence: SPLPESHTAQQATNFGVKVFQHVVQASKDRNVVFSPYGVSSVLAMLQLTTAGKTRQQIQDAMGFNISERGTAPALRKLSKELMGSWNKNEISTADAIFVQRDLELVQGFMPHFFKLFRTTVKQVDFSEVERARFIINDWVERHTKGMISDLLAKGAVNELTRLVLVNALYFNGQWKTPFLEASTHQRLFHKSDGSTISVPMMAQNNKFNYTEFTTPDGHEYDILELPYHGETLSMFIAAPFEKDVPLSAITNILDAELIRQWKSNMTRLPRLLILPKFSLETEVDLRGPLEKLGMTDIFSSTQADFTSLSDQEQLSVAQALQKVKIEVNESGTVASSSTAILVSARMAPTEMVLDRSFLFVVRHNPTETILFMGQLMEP
# B1: PICK167_A01 IgG1 (antibody, V domains shown)
# VH: QVQLQQSGAEVKKPGSSVKVSCKASGGTFSSYAISWVRQAPGQRLEWMGGIIPTFGTANYAQKFQGRVTITADESTSTAYMELSGLRSEDTAVYYCARERRQWLEGHFDYWGRGTPVTVSS
# VL: DIQMTQSPSFLSASIGDRVTITCRASEGIYHNLAWYQQKPGKAPKLLIYKASSLASGAPSRFSGSRSGTDFTLTISSLQPDDFATYYCQQYSNYPLTFGGGTKLEIKR
# How the values were obtained:
# mouse PAI-1 = molecular target: T1, mouse PAI-1; assay: IgG competition ELISA (DELFIA) against biotinylated human PAI-1, one-site binding analysis; column Mouse
# latent human PAI-1 [1] = molecular target: T3, latent human PAI-1 (human, UniProt P05121 24-402); assay: IgG competition ELISA (DELFIA), one-site binding analysis
# T3 construct: also called latent PAI-1
# latent human PAI-1 [2] = molecular target: T3, latent human PAI-1; assay: IgG competition ELISA (DELFIA) against biotinylated human PAI-1, one-site binding analysis; column Human latent
# [3] = molecular target: T4, glycosylated active human PAI-1 produced by CHO cells (human, UniProt P05121 24-402, N-glycosylated (CHO-produced)); assay: IgG competition ELISA (DELFIA) against biotinylated human PAI-1, one-site binding analysis; column Human glycosylated
# T4 construct: also called hu glyco; human glycosylated PAI-1
# rat PAI-1 = molecular target: T2, rat PAI-1; assay: IgG competition ELISA (DELFIA) against biotinylated human PAI-1, one-site binding analysis; column Rat
binder,measurement,setting,value
B1,fold difference in observed binding KD compared to human wild-type active,mouse PAI-1,47 fold
same,fold loss of binding affinity against wild-type active PAI-1,latent human PAI-1 [1],10 fold
same,fold difference in observed binding KD compared to human wild-type active,latent human PAI-1 [2],8.5 fold
same,fold difference in observed binding KD compared to human wild-type active,[3],1.2 fold
same,fold difference in observed binding KD compared to human wild-type active,rat PAI-1,9.7 fold
